Reference: the supplement of paper PMC9170038

Experiments:
MS2 coat protein [1] = assay: apparent KD of MS2 coat protein; designed switch direction (-1 OFF switch, 1 ON switch): 1; higher = weaker reporter binding; conditions: Eterna round: R98
Method: (§1)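 RNA-MaP: designed FMN/MS2 RNA switches (84 nt design region) are transcribed on-chip within common flanks and titrated with SNAP-549-labelled MS2 coat protein (about 1-3000 nM) in 100 mM Tris pH 7.5, 80 mM KCl, 4 mM MgCl2, without or with 200 uM FMN. Median apparent KD per design; activation ratio = KD,OFF / KD,ON.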

MS2 coat protein [2] = assay: apparent KD of MS2 coat protein; higher = weaker reporter binding; conditions: Eterna round: R101
Method: as §1

Row | Sequence | apparent KD of MS2 coat protein (MS2 coat protein [1]; input ligand: FMN 200 uM) | apparent KD of MS2 coat protein (MS2 coat protein [1]; input ligand: none) | apparent KD of MS2 coat protein (MS2 coat protein [2]; input ligand: FMN 200 uM) | apparent KD of MS2 coat protein (MS2 coat protein [2]; input ligand: none)
1 | GCUGCUAUCGCAGGAUAUUACAUGGGAAAUAAUACAUGAGGAUCACCCAUGUAAAAUAUCGUAAAUAAGAAGGGCGAUAGCAGC [Lame State 4 - Jieux - Same State NG 2] | 239 nM | 1210 nM | – | –
2 | GGAGGUCACAUUUACAUGAGGAUCACCCAUGUCGAAAGACAUGAGGAUAUGCUACCUAAUUGGUAGCAGAAGGCAUGGACCUCC [Mat - Same State NG 3 - JL Mod - D28] | 226 nM | 287 nM | – | –
3 | GUACGGAUCAUAGGAUAUCUGCCGGCCGGAGUUAGAGAAGGGUGAUCUAGGAUGCCACAUGAGGAUCACCCAUGUCAACAUCGC [Vemati] | 20.9 nM | 24.2 nM | – | –
4 | GGAGACCUCACAGGAUAUGCUGGACUUUGUCCAGCAGAAGGGUGAACAUGAGGAUCACCCAUGUAAAUGGUCUCCAAAUUUAAU [Denovo 55] | 33.4 nM | 389 nM | – | –
5 | AAUAAAACUCAAGGAUAUGACUCCGAAACGGAGUCAGAAGGUGAGGAUCACCCACCUAGCUCAGCGUCGAAAGACGCUGAGCAA [#SharedSequence ExNG1 - 32] (puzzle (switch architecture): Exclusion NG 1) | – | – | 42 nM | 9.01 nM
6 | AAUAAACAAUAAAAGAGUCCACGAAACUUUUGAGGAUCACCCAGAAGGGCUGAGGUAAUACCUCAGCAGGAUAUGGACGUGGAC [#SharedSequence IExNG# - 3] (puzzle (switch architecture): Inverted Exclusion NG 3) | – | – | 86.8 nM | 12.4 nM
7 | CUUAGUUUGUAGAAGGGUGACAUGAGGAUCACCCAUGUGCGUCGCCUGAAAGACCAGGGUACGCCACAGGAUAUACAAAGUAAG [Ororzati] (puzzle (switch architecture): Inverted Same State NG 2) | – | – | 88.2 nM | 58 nM
8 | GUGCGAGCCACAGGAUAUCUACAGAUUUUUUGUAGAGAAGGGUGACCUCGUGCACCACAUGAGGAUCACCCAUGUAACUAGGCG [Bianeren] | 24.5 nM | 82.1 nM | – | –
9 | UCGGUUUUCGCAGGAUAUGGAGGAUAUUCCCACAUGAGCAUCAGCCAUGUCUGCAUGGAAGAAGGCCAGAAGGGCGAGAACCGA [United States 1 - Jieux - Same State NG 2] | 11.1 nM | 13.6 nM | – | –
10 | AAAACAUGAGGAUCACCCAUGUAAAGAUCGGUUAAUAGAAGUGAGGAUAUACUAAAUUUUAGGUAGUAGAAGGCACUGGGUACA [JR_SSNG3_Sub034] | 28.1 nM | 23.1 nM | – | –
11 | GUAGCUAUCGGAGGAUAUUCAUACCGGAAACGGACAUGAGGAUCACCCAUGUGGCGAAAGCCUUGGGAGAAGGCCGAUAGCUAC [#DoubleMagnetSystem - jl-sng2-2.23 Eli mod] (puzzle (switch architecture): Same State NG 2) | – | – | 7.49 nM | 215 nM
12 | UUAUAAUUAAGAGGAUAUAUACAACAUGAGGAUCACCCAUGUACCCAUGUAGUAGAAGGCUUAUUUUUAUAUAAUAAUAUAAUU [AstrosLoopssng1#9] (puzzle (switch architecture): Small Loop Same State NG 1) | – | – | 40 nM | 148 nM
13 | GCAGAAGGUGCGGAGGAUCACCCUGUAAGGAUAUGCAUUAGCAAGGAUAUACAGAGGAUCACCCUGUAGAAGGUGCACUAUUCU [pwkr2 ssNG3 DX.4] | 1230 nM | 1450 nM | – | –
14 | AAAUAAAUCGAAGGAUAUCAGGGUGCACCUCAGUAAAACUGAGGUGCACCCUGAGAAGGUCGAGGAUCACCCGAUCUAAAUAAA [#SharedSequence SLExNG1: 2-2] (puzzle (switch architecture): Small Loop Exclusion NG 1) | – | – | 114 nM | 19.3 nM
15 | UAUUAAAGGUGAGGAUAUGCACAGGAUCACCGUGUAGAAGGCAUCAGGUAGAAGGUGCAGAGGAUCACCCUGUAAGGAUAUAUC [pwkr2 ssNG1 DX.10] | 191 nM | 1080 nM | – | –
16 | GUGCCUUGGGAGAAGGAUAAUUAAUAAUAAAUAAAAGGAUAUUCAUACCGGAAACGGACAUGAGGAUCACCCAUGUGGCACAAA (puzzle (switch architecture): Inverted Same State NG 1) | – | – | 45.4 nM | 186 nM
17 | UUUUUAUUUAUAGGAUAUGGAGACAUGAGGAUCACCCAUGUAUGAUAAGAUAAAUUAUGAUGUGGCCAGAAGGAUAUUAUUUUU [LRO018_SS NG 2] | 85.5 nM | 76.4 nM | – | –

Row | Sequence | apparent KD of MS2 coat protein (MS2 coat protein [1]; input ligand: FMN 200 uM) | apparent KD of MS2 coat protein (MS2 coat protein [1]; input ligand: none) | apparent KD of MS2 coat protein (MS2 coat protein [2]; input ligand: FMN 200 uM) | apparent KD of MS2 coat protein (MS2 coat protein [2]; input ligand: none)
18 | GGUACUCAAAGAGUACCAAUACGAACAUGAGGAUCACCCAUGUAGGAUAUGCUACUCAAAGAGUAGCAGAAGGACAUGUGCCUU [salish99_ExNG3_020 #endbits investigation] (puzzle (switch architecture): Exclusion NG 3) | – | – | 92.3 nM | 15.1 nM
19 | UGAUCGCUUGGAGGAUAUCCAACUAUCCUAGUUGGAGAAGGCCAAGCUACAGAGCUAAGCUUGGAAGUCACUUCCGAUCAACAC [pwkr ssNG1 F9.4.2] | 54.9 nM | 33.6 nM | – | –
20 | AAAUAACUUGAAGGAUAUGACCCUCGAGGUGACUAAAAGUCACCUCGAGGGUCAGAAGGUCGAGGAUCACCCGACCUAGUGAAA [#SharedSequence SLExNG1: 7-1] (puzzle (switch architecture): Small Loop Exclusion NG 1) | – | – | 7.61 nM | 7.54 nM
21 | AGACCUGCUCAGAAGGCGUGUGCGAGGCUGGAAACAGCCUCGAAUUAAAAUCUUCGAGGAUCACCCGAGGAUAUGAGCAGGUCA [#SharedSequence - IExNG2: 20] (puzzle (switch architecture): Inverted Exclusion NG 2) | – | – | 59.7 nM | 11.3 nM
22 | ACUUUAUUUGAGAAGGUGAAGUGGAAACAUGAGGAUCACCCAUGUAAUACGAAGCGUAUUUUUAUCAAGGAUAUCAAAUAAAGA [WHB=ISS-NG2-MS2FAR3 #bad] (puzzle (switch architecture): Inverted Same State NG 2) | – | – | 7.58 nM | 10.7 nM
23 | CAAUUGGCACAGAAGGGUGACAUGAGGAUCACCCAUGUAGCGUGGCAUUCAGGAAGAGCCACGCCACAGGAUAUGUGCGGGCAC [Rigeri] (puzzle (switch architecture): Inverted Same State NG 2) | – | – | 31.9 nM | 24.7 nM
24 | CCUGCACCUCAAGGAUAUCCAGUCGUUUCGACUGGAGAAGGUGAGGAUCACCCACCUAGCCUGACGUUUGUCAGGCAUGCAGGU [#AddUracilToBrourdLoops 1 - Jieux - Exclusion NG1] (puzzle (switch architecture): Exclusion NG 1) | – | – | 49.5 nM | 27 nM
25 | AAAGAUUUUCAAGGAUAUCAGUGGCAAAGCCACUGAGAAGGUGAGGAUCACCCACCUACGUGACGCUGGAAACAGCGUCACGAA [#SharedSequence ExNG1 - 26] (puzzle (switch architecture): Exclusion NG 1) | – | – | 64.5 nM | 21 nM
26 | GCUUGCGACGAAGGAUAUGGGUGCCUAAACACGAGGAUCACCCGUGUACAGGAAGCUAAAUGCUCUCAGAAGGUCGUCGCAGGC [United States 10 - Jieux - Same State NG 2] | 18.4 nM | 36 nM | – | –
27 | UUAUUAUGUGUAGGAUAUGCGUAUUAUUAUUAUGCAGAAGGACAUGAGGAUCACCCAUGUAUAUUAUUAUUAUAUAUUAUAUAU (puzzle (switch architecture): Exclusion NG 1) | – | – | 19.1 nM | 14.7 nM
28 | UCAGUAGAGUCAGGAUAUACAAAAGGCGGUCCAUACAUGAGGAUCACCCAUGUAGAAGGGACUCUACUGUAAGUCGGAAACGAC [#StaticStemDeletion - Eli x2 4.005] (puzzle (switch architecture): Small Loop Exclusion NG 1) | – | – | 15.6 nM | 329 nM
29 | UAUUAUAUAUAGAAGGACAUGAGGAUCACCCAUGUCGCCGGGCCCGGGAAACCGGGCCCGGCCAUGUAGGAUAUAUAUAUAGUA [#This is a good prank 9] (puzzle (switch architecture): Inverted Exclusion NG 2) | – | – | 7.72 nM | 5.35 nM
30 | UUAUAAAAUAUAGGAUAUGGAAACAUGAGGAUCACCCAUGUAUGAUAAGAUAAAUUAUGAUAUAGCCAGAAGGAUACAAUAUAU [LRO011_SS NG 2] | 28.9 nM | 28 nM | – | –
31 | AAAUAAAAUAUAGGAUAUGGAAACAUGAGGAUCACCCAUGUAAAAUAAGAUAAAUAAUAAUAUAGCCAGAAGGAUAAAAUAUAA [LRO004_SS NG 2] | 34.5 nM | 27.6 nM | – | –
32 | CCUUGAUAAUAUCUUCACAUGAGGAUCACCCAUGUCGCUCGACAGGAUAUAUUUUAUUUGUUUAAGUAGAAGGGUCGCAGAUUC [LRO020_SS NG 3] | 142 nM | 136 nM | – | –
33 | CGAGACACUUGAGGAUAUGCUCAGGAUAACUGAGCAGAAGGCAGGGAAACCUGAGGAUCACCCAGGUAACUGGAAAGUCUCGAA [Same State NG1 - A3C, U17G Submission 5B] | 46.3 nM | 144 nM | – | –
